Patent US20210340265A1 (UNM RAINFOREST INNOVATIONS, published 2021)
Ends that are not written are not given here. * marks the point of attachment. Biotin = O=C1N[C@H]2[C@H](CS[C@H]2CCCCC(=O)*)N1

T1: CCK-B receptor (as coated in the indirect ELISA; form not stated)
T1 chain: CETPRIRGTGTRELE

T2: 15-amino-acid extracellular CCK-B receptor peptide fragment CETPRIRGTGTRELE
T2 construct: Custom peptide (GenScript) used for immunization and panning; also called CCK-B peptide
T2 peptide: Biotin-CETPRIRGTGTRELE


What was measured:
[1] = target: T1, CCK-B receptor (as coated in the …); assay: ELISA
[2] = target: T2, 15-amino-acid extracellular CCK-B …; assay: indirect ELISA on CCK-B receptor peptide

Kd [1] [nM]	binding result [2]	Binder
349	–	CCK-BR-scFv14-3 (scFv) MAGAELVRSGASVKLSCTASGFNIKDYYIHWVKQRPEQGLEWIGWIDPENGDTEYAPKFQGKATMTADTSSNTAYLQLSSLTSEDTAVYYCNAGGRFAYWGQGTLVTVSAAKTTAPSGGGGSGGGGSGGGGGSGGGGSSSLSVSSGEKVTMSCKSSQSLLNSGNQKNYLAWYQQKPGQPPKLLIYWASTDESGVPDRFTGSGSGTDFTLTVSSVQAENLALYYCQNDHSYPYHVFDGGTKLEIKRADAAALE
366	–	CCK-BR-scFv134-1 (scFv) scFv: MAGAELVKPGASVKMSCKASGYTFTDYWMHWVKQRPGQGLEWIGAIDTSDSYTSYNQKFKGKATLTVDKSSSTAYIQLSSLTSEDSAVYYCARSEGYLPFDYWGQGTTLTVSSAKTTAPSGGGGSGGGGSGGGGGSGGGGSLSLPVSFGDQVSISCRSSQSLANSYGNTYLSWYLHKPGQSPQLLIYGISNRFSGVPDRFSGSGSGTDFTLKISTIKPEDLGMYYCLQGTHQPRTFGGGTKLEIKRADAAALEHHHHHH
–	binds	CCKBR-scFv11-2 (scFv) scFv: MAQVQLKQSGAELVRPGSSVKISCKASGYAFTNYLIEWVKQRPGQGLEWIGQIYPGDGDTNYNGKFKGKATLTVDNSSSTAYMELRSLTSEDSAVYYCARAATWYYAMDYWGQGTSVTVSSGGGGSGGGGSAIMSASPGEKVTITCSASSSVSYMHWFQQKPGTSPKLWIYSTSNLASGVPARFSGSGSGTSYSLTISSMEAEDAASYFCHQWSSYPWTFGGGTKLEIKRADAAALEHHHHHH
195	–	CCK-BR-scFv77-2 (scFv) scFv: MAGAELVRSGASVKLSCTASGFNIKDYYIHWVKQRPEQGLEWIGWIDPENGDTEYAPKFQGKATMTADTSSNTAYLQLSSLTSEDTAVYYCNAGGRFAYWGQGTLVTVSAAKTTAPSGGGGSGGGGSGGGGGSGGGGSSSLSVSAGEKVTMSCKSSQSLLNSGNQKNYLAWYQQKPGQPPKLLIYGASTRESGVPDRFTGSGSGTDFTLTISSVQAEDLAVYYCQNDHSYPYTFGGGTKLEIKRADAAALEHHHHHH
